{
  "source": "the supplement of paper PMC9112550",
  "about": "“Optimization of the antimicrobial peptide Bac7 by deep mutational scanning” (BMC Biology, 2022);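 note: peptides expressed intracellularly from a pBAD plasmid library in pooled LB shake-flask culture, induced with 0.3% L-arabinose, DNA abundance read by NGS, three biological replicates, DESeq2 with apeglm shrinkage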",
  "data": [
    {"tested_on": "Escherichia coli TOP10", "experiment": "shrunken log2 fold change of peptide-encoding DNA abundance (4.5 h post-induction vs induction); higher = less antimicrobial activity (less host growth inhibition)", "conditions": "time post-induction: 4.5 h; library: site-saturation at positions 5, 18, 19, 20", "values": [
      {"sequence": "RRIRRRPPRLPRPRPRPEPLPRP", "shrunken log2 fold change": 0.137},
      {"sequence": "RRIRCRPPRLPRPRPRPLFKPRP", "shrunken log2 fold change": -0.475},
      {"sequence": "RRIRKRPPRLPRPRPRPPAPPRP", "shrunken log2 fold change": 1.14},
      {"sequence": "RRIRHRPPRLPRPRPRPWYMPRP", "shrunken log2 fold change": -0.324},
      {"sequence": "RRIRVRPPRLPRPRPRPTKKPRP", "shrunken log2 fold change": -0.0633},
      {"sequence": "RRIRQRPPRLPRPRPRPIWFPRP", "shrunken log2 fold change": -0.000433},
      {"sequence": "RRIRERPPRLPRPRPRPQGFPRP", "shrunken log2 fold change": -0.144},
      {"sequence": "RRIRHRPPRLPRPRPRPHPHPRP", "shrunken log2 fold change": -0.19},
      {"sequence": "RRIRCRPPRLPRPRPRPRYYPRP", "shrunken log2 fold change": -0.612},
      {"sequence": "RRIRIRPPRLPRPRPRPPMCPRP", "shrunken log2 fold change": -0.0556},
      {"sequence": "RRIRDRPPRLPRPRPRPEYFPRP", "shrunken log2 fold change": 0.0472},
      {"sequence": "RRIRCRPPRLPRPRPRPQHEPRP", "shrunken log2 fold change": 0.0354},
      {"sequence": "RRIRRRPPRLPRPRPRPFMHPRP", "shrunken log2 fold change": 0.0444},
      {"sequence": "RRIRRRPPRLPRPRPRPICWPRP", "shrunken log2 fold change": 0.388},
      {"sequence": "RRIRTRPPRLPRPRPRPNYTPRP", "shrunken log2 fold change": -0.753},
      {"sequence": "RRIRKRPPRLPRPRPRPMQPPRP", "shrunken log2 fold change": 0.288},
      {"sequence": "RRIRHRPPRLPRPRPRPVYPPRP", "shrunken log2 fold change": -0.529},
      {"sequence": "RRIRIRPPRLPRPRPRPNQRPRP", "shrunken log2 fold change": 0.00427},
      {"sequence": "RRIRARPPRLPRPRPRPLVQPRP", "shrunken log2 fold change": 0.561},
      {"sequence": "RRIRCRPPRLPRPRPRPETHPRP", "shrunken log2 fold change": 0.0444},
      {"sequence": "RRIRERPPRLPRPRPRPAGAPRP", "shrunken log2 fold change": 0.464},
      {"sequence": "RRIRKRPPRLPRPRPRPKRIPRP", "shrunken log2 fold change": 0.0395},
      {"sequence": "RRIRPRPPRLPRPRPRPPDEPRP", "shrunken log2 fold change": 0.444},
      {"sequence": "RRIRWRPPRLPRPRPRPVHDPRP", "shrunken log2 fold change": 0.141},
      {"sequence": "RRIRQRPPRLPRPRPRPMYMPRP", "shrunken log2 fold change": -0.0317},
      {"sequence": "RRIRLRPPRLPRPRPRPRDLPRP", "shrunken log2 fold change": 0.0268},
      {"sequence": "RRIRARPPRLPRPRPRPGLLPRP", "shrunken log2 fold change": 0.547},
      {"sequence": "RRIRNRPPRLPRPRPRPYWWPRP", "shrunken log2 fold change": 0.0224},
      {"sequence": "RRIRTRPPRLPRPRPRPFKQPRP", "shrunken log2 fold change": 0.0538},
      {"sequence": "RRIRGRPPRLPRPRPRPTGVPRP", "shrunken log2 fold change": 0.742},
      {"sequence": "RRIRQRPPRLPRPRPRPLLAPRP", "shrunken log2 fold change": 0.328},
      {"sequence": "RRIRIRPPRLPRPRPRPLNDPRP", "shrunken log2 fold change": -0.351},
      {"sequence": "RRIRFRPPRLPRPRPRPLCKPRP", "shrunken log2 fold change": 0.0214},
      {"sequence": "RRIRERPPRLPRPRPRPPCSPRP", "shrunken log2 fold change": -0.258},
      {"sequence": "RRIRHRPPRLPRPRPRPMQMPRP", "shrunken log2 fold change": -0.00907},
      {"sequence": "RRIRYRPPRLPRPRPRPRDPPRP", "shrunken log2 fold change": 0.271},
      {"sequence": "RRIRERPPRLPRPRPRPNCWPRP", "shrunken log2 fold change": 0.659},
      {"sequence": "RRIRCRPPRLPRPRPRPWPGPRP", "shrunken log2 fold change": 0.123},
      {"sequence": "RRIRHRPPRLPRPRPRPCQVPRP", "shrunken log2 fold change": -0.345},
      {"sequence": "RRIRMRPPRLPRPRPRPMVGPRP", "shrunken log2 fold change": -0.06},
      {"sequence": "RRIRNRPPRLPRPRPRPHVCPRP", "shrunken log2 fold change": -0.00663},
      {"sequence": "RRIRMRPPRLPRPRPRPKNPPRP", "shrunken log2 fold change": 0.145},
      {"sequence": "RRIRTRPPRLPRPRPRPRPDPRP", "shrunken log2 fold change": 1.44},
      {"sequence": "RRIRFRPPRLPRPRPRPLIVPRP", "shrunken log2 fold change": -0.473},
      {"sequence": "RRIRYRPPRLPRPRPRPCLCPRP", "shrunken log2 fold change": -0.453},
      {"sequence": "RRIRYRPPRLPRPRPRPLKKPRP", "shrunken log2 fold change": -0.339},
      {"sequence": "RRIRIRPPRLPRPRPRPPEDPRP", "shrunken log2 fold change": 0.324},
      {"sequence": "RRIRWRPPRLPRPRPRPFDIPRP", "shrunken log2 fold change": -0.838},
      {"sequence": "RRIRRRPPRLPRPRPRPWANPRP", "shrunken log2 fold change": 0.0142},
      {"sequence": "RRIRHRPPRLPRPRPRPRHWPRP", "shrunken log2 fold change": -0.0269},
      {"sequence": "RRIRMRPPRLPRPRPRPRMQPRP", "shrunken log2 fold change": 0.598},
      {"sequence": "RRIRTRPPRLPRPRPRPKMAPRP", "shrunken log2 fold change": 0.129},
      {"sequence": "RRIRIRPPRLPRPRPRPATMPRP", "shrunken log2 fold change": -0.0977},
      {"sequence": "RRIRDRPPRLPRPRPRPKGPPRP", "shrunken log2 fold change": -0.0184},
      {"sequence": "RRIRERPPRLPRPRPRPCPCPRP", "shrunken log2 fold change": -0.341},
      {"sequence": "RRIRRRPPRLPRPRPRPAMTPRP", "shrunken log2 fold change": 0.314},
      {"sequence": "RRIRERPPRLPRPRPRPECNPRP", "shrunken log2 fold change": 0.0631},
      {"sequence": "RRIRHRPPRLPRPRPRPTWQPRP", "shrunken log2 fold change": 0.572},
      {"sequence": "RRIRGRPPRLPRPRPRPFLAPRP", "shrunken log2 fold change": 0.525},
      {"sequence": "RRIRPRPPRLPRPRPRPDDKPRP", "shrunken log2 fold change": -0.0729},
      {"sequence": "RRIRNRPPRLPRPRPRPWGRPRP", "shrunken log2 fold change": 0.0851},
      {"sequence": "RRIRDRPPRLPRPRPRPKLNPRP", "shrunken log2 fold change": 0.0523},
      {"sequence": "RRIRCRPPRLPRPRPRPEIQPRP", "shrunken log2 fold change": 0.141},
      {"sequence": "RRIRIRPPRLPRPRPRPYWNPRP", "shrunken log2 fold change": -0.694},
      {"sequence": "RRIRARPPRLPRPRPRPVWAPRP", "shrunken log2 fold change": 0.305},
      {"sequence": "RRIRWRPPRLPRPRPRPETTPRP", "shrunken log2 fold change": 0.234},
      {"sequence": "RRIRWRPPRLPRPRPRPDCDPRP", "shrunken log2 fold change": 0.799},
      {"sequence": "RRIRPRPPRLPRPRPRPYPMPRP", "shrunken log2 fold change": -0.0996},
      {"sequence": "RRIRERPPRLPRPRPRPMRKPRP", "shrunken log2 fold change": -0.0645},
      {"sequence": "RRIRMRPPRLPRPRPRPRGMPRP", "shrunken log2 fold change": 0.861},
      {"sequence": "RRIRSRPPRLPRPRPRPEYSPRP", "shrunken log2 fold change": -0.322},
      {"sequence": "RRIRMRPPRLPRPRPRPRNSPRP", "shrunken log2 fold change": -0.294},
      {"sequence": "RRIRFRPPRLPRPRPRPNRTPRP", "shrunken log2 fold change": -0.0619},
      {"sequence": "RRIRNRPPRLPRPRPRPTVYPRP", "shrunken log2 fold change": 0.0487},
      {"sequence": "RRIRGRPPRLPRPRPRPENLPRP", "shrunken log2 fold change": -0.0405}
    ]}
  ]
}
